Values of other authors as cited in paper PMC10941800.
Like-named read-outs stand apart in the source and are kept apart here.

Assays:
Details in all cases: cited from earlier work
[1] = molecular target: measles virus hemagglutinin (Measles morbillivirus) (UniProt P08362)
[2] = molecular target: measles virus hemagglutinin (Measles morbillivirus) (UniProt P08362); remark: listed apart in the source
[3] = molecular target: measles virus hemagglutinin (Measles morbillivirus) (UniProt P08362); remark: listed apart in the source

Chain of UniProt P08362 (P08362 59-617): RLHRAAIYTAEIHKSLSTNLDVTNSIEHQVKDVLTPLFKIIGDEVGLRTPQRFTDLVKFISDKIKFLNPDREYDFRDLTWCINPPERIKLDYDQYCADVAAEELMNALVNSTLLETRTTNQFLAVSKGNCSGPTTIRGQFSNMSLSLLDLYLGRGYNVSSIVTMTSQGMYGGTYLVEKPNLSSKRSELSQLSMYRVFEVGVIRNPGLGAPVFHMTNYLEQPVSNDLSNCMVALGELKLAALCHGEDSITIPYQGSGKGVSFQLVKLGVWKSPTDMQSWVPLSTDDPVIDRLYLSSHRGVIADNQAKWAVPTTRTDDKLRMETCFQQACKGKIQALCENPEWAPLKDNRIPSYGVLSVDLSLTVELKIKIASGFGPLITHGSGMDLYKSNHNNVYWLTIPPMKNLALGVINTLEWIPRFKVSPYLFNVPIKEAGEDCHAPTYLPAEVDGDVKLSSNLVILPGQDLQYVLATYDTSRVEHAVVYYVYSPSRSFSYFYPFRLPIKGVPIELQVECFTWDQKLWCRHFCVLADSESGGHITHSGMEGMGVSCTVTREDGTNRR

For CD46 (from UniProt P15529), the Kd [1] is given as 200 nM.

For Nectin-4 (from UniProt Q96NY8), the Kd [2] is given as 670 nM.

For SLAM (from UniProt Q13291), the Kd [3] is given as 170 nM.
